# In the DeepSol protein solubility set:
# Test: soluble on expression in E. coli; label from the status in PepcDB or PDB records
row,Sequence,soluble on expression in E. coli
1,MSNENHEELNDQLIVRREKVDTLREEGIDPFGEKFIRSISPEEIETKFADKSKEELEEAAIEVSVAGRIMTKRVKGKVGFTHIQDRFHQLQIYIRKDAIGEDAYAVFKLADLGDIIGIKGTIFRTNTGELSVKATEFTLLSKSLRPLPDKYHGLKDVEQRYRQRYLDLITNEESQNRFVMRSKILKYTRDYMDNQGFLEVETPVLHTIAGGAAAKPFITHHNALDMELYLRIALELHLKRLIVGGMDKVYEIGRVFRNEGTSTRHNPEFTMLESYAAYEDYEDVMDLVEGLVSTVCKQVNGTTEITYGEYKVDLTPNWRRIHMADAVKEYVGVDFWNVTSDEEARELAKKHDVPVTEHMTYGHILNEFFETYVEEKLIQPTFVYGHPVEISPLAKKNKEDERFTDRFELFIVGREHANAFSELNDPIDQRERFEAQMKEREQGNDEAHGMDADFLEALEYGLPPTGGLGIGIDRLVMLLTDAPSIRDILLFPTMKHRD,not soluble
2,MSNGIVIIGSGFAARQLVKNIRKQDATIPLTLIAADSMDEYNKPDLSHVISQGQRADDLTRQTAGEFAEQFNLHLFPQTWVTDIDAEARVVKSQNNQWQYDKLVLATGASAFVPPVPGRELMLTLNSQQEYRACETQLRDARRVLIVGGGLIGSELAMDFCRAGKAVTLIDNAASILASLMPPEVSSRLQHRLTEMGVHLLLKSQLQGLEKTDSGIQATLDRQRNIEVDAVIAATGLRPETALARRAGLTINRGVCVDSYLQTSNTDIYALGDCAEINGQVLPFLQPIQLSAMVLAKNLLGNNTPLKLPAMLVKIKTPELPLHLAGETQRQDLRWQINTERQGMVARGVDDADQLRAFVVSEDRMKEAFGLLKTLPM,not soluble
3,MSNHHSSCSSRTGGAHRRCDCTEDLTENDKLWNDFEGCAQAVARLYSDSSWRNFRGAAEGTTQLYKTSTDSYRRGFEKGFSSGCTSIAKEILQAFRDPSKIDMNIVLEVLYRNMAIPREERLTVNTQNGISSDTLAAVELFQQALNQPQVPPLSTLSLLPPTTREQTTDTLDEFLASQVQRHRKRQRSPNNSTTSPTSQMKRQRRL,soluble
4,MSNNEIVFVTGNANKLKEVQSILTQEVDNNNKTIHLINEALDLEELQDTDLNAIALAKGKQAVAALGKGKPVFVEDTALRFDEFNGLPGAYIKWFLKSMGLEKIVKMLEPFENKNAEAVTTICFADSRGEYHFFQGITRGKIVPSRGPTTFGWDSIFEPFDSHGLTYAEMSKDAKNAISHRGKAFAQFKEYLYQNDF,not soluble
5,MSNQYDPSQPVVFTDFSPKEGGMRTRLYIEGSNFGNDPTKIHITIGGEKTKTIGADGKKIYCMVPSKAFDGIINVRVDGPDGKPIAEHTFEEEFKYTPATIVGTLLRKVDEDNNSAFQEGSFDEGASIPSNDCMVFDPKYKDGDNRLLFSSNHSDGLHLIDLTERTVKRLFPRTGYSTMYSFTFSADGDTLLFTDDHGQDNTTRANIYYSLRRENFRRIRPYNYGRTAYSLVYMDDGTIFYTTWWEGKVYKMIRNGAIPNIDENAEVAFSLSQISAVGGSHTILFRHPSNKFMYMLSDNFGAVFRADYDPVAKTFGNPSIIAGNMNDKSFKEGTGGSARFNKPQFGVFVKNEKYGEGIGPDNDQYDFYFCDRENHCIWKLDPHGVASLAAGRSNENADGKIWGYVDGNPLHEARFNQPAGLAYDPDTDMFYIGDIDNKGIRYMTTELEHHHHHH,not soluble
6,MSNSHHTSMRGNDMSDNIRVGLIGYGYASKTFHAPLIAGTPGLELAVISSSDETKVKADWPTVTVVSEPKHLFNDPNIDLIVIPTPNDTHFPLAKAALEAGKHVVVDKPFTVTLSQARELDALAKSLGRVLSVFHNRRWDSDFLTLKGLLAEGVLGEVAYFESHFDRFRPQVRDRWREQGGPGSGIWYDLAPHLLDQAITLFGLPVSMTVDLAQLRPGAQSTDYFHAILSYPQRRVILHGTMLAAAESARYIVHGSRGSYVKYGLDPQEERLKNGERLPQEDWGYDMRDGVLTRVEGEERVEETLLTVPGNYPAYYAAIRDALNGDGENPVPASQAIQVMELIELGIESAKHRATLCLA,soluble
7,MSNVLIINAMKEFAHSKGALNLTLTNVAADFLRESGHQVKITTVDQGYDIESEIENYLWADTIIYQMPAWWMGEPWILKKYIDEVFTDGHGRLYQSDGRTRSDATKGYGSGGLIQGKTYMLSVTWNAPREAFTDPEQFFHGVGVDGVYLPFHKANQFLGMKPLPTFMCNDVIKQPDIEGDIARYRQHLAENVNS,not soluble
8,MSPEQSPFHAGELAIQERAGVREQVAGFGSRAIRTFMPDQHREFFALLSLLLVGSLDADGYPSASVLWGPPGFARSPEPTRLRIDNLPQADDPLAANLEAGTRLGILGLEWPTRRRNRMNGRVLARDGKGFTVGVEQSFGNCPKYIQARSHQPVSRIASPALQGEGLDPRWLSLVSCSDTLFIASQHADPLRGGVDVSHRGGPPGFLRLGADGRLWLPDYAGNRLFNTLGNLLQDPRCGLLFIDFDNGDLLHLHAEAELFWPGSQPSIPWPAGAERLLALRPAGWRWRRGRLPLAFGEPQPSPFLPAGES,not soluble
9,MSPGSVVVTGANRGIGLGLVQQLVKDKNIRHIIATARDVEKATELKSIKDSRVHVLPLTVTCDKSLDTFVSKVGEIVGSDGLSLLINNAGVLLSYGTNTEPNRAVIAEQLDVNTTSVVLLTQKLLPLLKNAASKESGDQLSVSRAAVITISSGLGSITDNTSGSAQFPVLAYRMSKAAINMFGRTLAVDLKDDNVLVVNFCPGWVQTNLGGKNAALTVEQSTAELISSFNKLDNSHNGRFFMRNLKPYEF,soluble
10,MSPHPQPAPEPVIQYIASCKLPTPWGEFVMHGFEEESGQEHVALTLGEVGDGLPVLARLHSECLTGDALFSLRCDCGFQLEAAMEAISKAGRGALLYLRQEGRGIGLINKIRAYKLQDGGADTVEANERLGFPADMRDFRIARHMLAHLGIGSVKVMTNNPRKLATLEAAGIAVVERVPLQVGRNPYNDRYLDTKAAKLGHMLLKLEHHHHHH,soluble
11,MSPQESRRLSIQRCIQSLVHACQCRNANCSLPSCQKMKRVVQHTKGCKRKTNGGCPVCKQLIALCCYHAKHCQENKCPVPFCLNIKHK,soluble
12,MSPSQDPSLENYRAIADGIATLFFPHAEVVLHDLRSQRVDYIANNLSKREVGDDSALEDMLEGDSDERNIGPYEKLNWDGQKIRSVSTVLRDSAGQPLAVLCINLNISLFESAKAALDLFLSPSKLIPQPDALFRDDWQERINTFLHGWLRQRQLGLNLLTREHKRELVLALHAEGAFKGKSAANYVANVLNMGRATVYKHLKELKEGGD,not soluble
13,MSPTLSILIPVYKRDCRRLLEELYKQAEELSVGYEIILGDDCSGEPYTSQYIAYEQEGLCRLVSAEENMGAGRLRNRLAEEAQGEQLLILDSDTLPASPDFIERYLRHASGTTVVCGGFVYPPKSTNPLRQRYGAEVESRSAEERARKPHSGFISMAFMIPRKQMLATGFPPNMGMGYEDILFGERLRQAGIPILHIDNPVEHYHCDTAEGFLATTRSYLDNLYCHREELAELVSLLRAYNLLKRLHLMRMVAALWPLIRSSLEKQLTGAKPSLLLFSLYKLLYVASLSLVCAEKS,not soluble
14,MSPTTDRIAVVGGSISGLTAALMLRDAGVDVDVYERSPQPLSGFGTGIVVQPELVHYLLEQGVELDSISVPSSSMEYVDALTGERVGSVPADWRFTSYDSIYGGLYELFGPERYHTSKCLVGLSQDSETVQMRFSDGTKAEANWVIGADGGASVVRKRLLGIEPTYAGYVTWRGVLQPGEVADDVWNYFNDKFTYGLLDDGHLIAYPIPGRENAESPRLNFQWYWNVAEGPDLDELMTDVRGIRLPTSVHNNSLNPHNLRQFHSKGESLFKPFRDLVLNASSPFVTVVADATVDRMVHGRVLLIGDAAVTPRPHAAAGGAKASDDARTLAEVFTKNHDLRGSLQSWETRQLQQGHAYLNKVKKMASRLQHGGSFEPGNPAFAFGLPKVDEPSVVTNS,soluble
15,MSQEQVEMIYAKTIEQILEMTGNATANFLPVLGVKSIEMAIGQMEEYLEMLKNLRVDYEKEPNLQSCMSPRLNDSMLIHRNRLARTSKSRLALYRTSPEIARFSRGSPDDIENENLSMSKIRSITEETSILDPTLCMDETTHQRGFLADVSDMNGTVRSRMPSFNFNHISPVPAEKTRRHSVLNVTTDFDVDLSSLCEPSQIEENSGQILFQNVLESALRTPNANNNTILLTDSEVTPVNISNLWNVKLRPGSNRKIDNGIRKEIQRQLACDSQL,not soluble
16,MSQIEFKNVSKVYPNGHVGLKNINLNIEKGEFAVIVGLSGAGKSTLLRSVNRLHDITSGEIFIQGKSITKAHGKALLEMRRNIGMIFQHFNLVKRSSVLRNVLSGRVGYHPTWKMVLGLFPKEDKIKAMDALERVNILDKYNQRSDELSGGQQQRISIARALCQESEIILADEPVASLDPLTTKQVMDDLRKINQELGITILINLHFVDLAKEYGTRIIGLRDGEVVYDGPASEATDDVFSEIYGRTIKEDEKLGVN,not soluble
17,MSQQPGVLPENMKRYMGRDAQRMNILAGRIIAETVRSTLGPKGMDKMLVDDLGDVVVTNDGVTILREMSVEHPAAKMLIEVAKTQEKEVGDGTTTAVVVAGELLRKAEELLDQNVHPTIVVKGYQAAAQKAQELLKTIACEVGAQDKEILTKIAMTSITGKGAEKAKEKLAEIIVEAVSAVVDDEGKVDKDLIKIEKKSGASIDDTELIKGVLVDKERVSAQMPKKVTDAKIALLNCAIEETASEMLKDMVAEIKASGANVLFCQKGIDDLAQHYLAKEGIVAARRVKKSDMEKLAKATGANVITNIKDLSAQDLGDAGLVEERKISGDSMIFVEECKHPKAVTMLIRGTTEHVIEEVARAVDDAVGVVGCTIEDGRIVSGGGSTEVELSMKLREYAEGISGREQLAVRAFADALEVIPRTLAENAGLDAIEILVKVRAAHASNGNKCAGLNVFTGAVEDMCENGVVEPLRVKTQAIQSAAESTEMLLRIDDVIAAEKLRGAPDMGDMGGMPGMGGMPGMM,soluble
18,MSQVSTEFIPTRIAILTVSNRRGEEDDTSGHYLRDSAQEAGHHVVDKAIVKENRYAIRAQVSAWIASDDVQVVLITGGTGLTEGDQAPEALLPLFDREVEGFGEVFRMLSFEEIGTSTLQSRAVAGVANKTLIFAMPGSTKACRTAWENIIAPQLDARTRPCNFHPHLKK,soluble
19,MSQYIYELEMKVRDYECDLQGIVNNANYQHYLEHTRHEFLTSVGVSFAALHEQGVDPVVARINMAFKTPLKSGDEFVSKLYMKKEGIKYVFYQDIFRKSDQKVVVKSTVETVCVVNGRLSNSELFDNVFAPYLK,not soluble
20,MSQYNPTTADFEALLMQSFQTNDLNEGSVVKGRVIAIEKDMAIIDAGLKVEGRIPLKEFGAKGKDGSLQIGDEVEVYIERIENAMGEAVLSREKARREESWIRLEEKFNAGARVDGVIFSQVKGGFTVDLDGAVAFLPRSQVDIRPIRDVSPLMHNSQSFEILKMDRRRGNIVVSRRTVLEESRAEQRSEIVQNLEENQIVEGVVKNITDYGAFVDLGGIDGLLHVTDMAWRRVNHPSEILTIGQTIKVQIIRINQDTHRISLGMKQLESDPWESISARYPVGKKITGAVTNITDYGGFVEIEPGIEGLIHVSEMSWTKKNVHPGKILSTSQEVEVVILEIDPSKRRISLGLKQTFENPWVAFANKFPVNSQIEGEVKNKTEFGLFIGLEGDVDGMVHLSDLDWNRPGEQVIDTYNKGDIVKAVVLDVDIEKERISLGIKQLSSDKVGEAAASGELRKGAVVTCEVTAVNDNGIDVKLTDHNLETTIRRTDLARDRDEQRPERFSIGQRVDARITAFDKKTRKLSVSIKALEIAEEKEAVAQYGSTDSGASLGDILGAALKKQEQDLEHHHHHH,soluble
